Test results published in the supplement of paper PMC7877785.
± gives the uncertainty stated by the source.

Assay: self-splicing fitness, log relative to wild type (ln ratio); higher = more splicing; Tetrahymena group I intron in knt gene, E. coli kanamycin selection, DiMSum; sequences stand for … in CUCUCU…GGAGGGAAAAGUUAUCAGGCAUGCACCUGGUAGCUAGUCUUUAAACCAAUAGAUUGCAUCGGUUUAAAAGGCAAGACCGUCAAAUUGCGGGAAAGGGGUCAACAGCCGUUCAGUACCAAGUCUCAGGGGAAACUUUGAGAUGGCCUUGCAAAGGGUAUGGUAAUAAGCUGACGGACAUGGUCCUAACCACGCAGCCAAGUCCUAAGUCAACAGAUCUUCUGUUGAUAUGGAUGCAGUUCACAGACUAAAUGUCGGUCGGGGAAGAUGUAUUCUUCUCAUAAGAUAUAGUCGGACCUCUCCUUAAUGGGAGCUAGCGGAUGAAGUGAUGCAACACUGGAGCCGCUGGGAACUAAUUUGUAUGCGAAAGUAUAUUGAUUAGUUUUGGAGUACUCGUGGUCG
How it was run: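 Library with all eight P1ex-region intron nucleotides randomised, intron inside the knt kanamycin-resistance gene on pET-22b(+), in E. coli BL21(DE3). Cells grew overnight at 37°C or 30°C on LB agar with or without 25 μg/mL kanamycin (plus 100 μg/mL carbenicillin, 50 μM IPTG, 0.2% rhamnose), in six replicate transformations. Pooled colonies were amplicon-sequenced on Illumina HiSeq 2500. DiMSum fitness is the error-weighted combination of wild-type-normalised replicate fold changes, kanamycin versus none.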

Sequence | self-splicing fitness (ln) (30 °C) | self-splicing fitness (ln) (37 °C)
CGAUAGCAAUAUUACGUGCU | -3.92 ± 0.34 | -1.34 ± 0.17
CGAUAGCAAUAUUACGUGGU | -3.97 ± 0.16 | -1.94 ± 0.12
CGAUAGCAAUAUUACGUGUC | -3.67 ± 0.2 | -2.64 ± 0.16
CGCAAGCAAUAUUACGAACC | -2.01 ± 0.19 | -0.722 ± 0.19
CGCAAGCAAUAUUACGACAG | -0.409 ± 0.083 | 0.344 ± 0.13
CGCAAGCAAUAUUACGAGAA |  | -2.03 ± 0.42
CGCAAGCAAUAUUACGAGAC | -3.4 ± 0.22 | -1.81 ± 0.21
CGCAAGCAAUAUUACGAUGA | -0.874 ± 0.064 | -0.853 ± 0.071
CGCAAGCAAUAUUACGCAAG | -2.84 ± 0.31 | -2.2 ± 0.31
CGCAAGCAAUAUUACGCCCU | -0.736 ± 0.085 | 0.327 ± 0.12
CGCAAGCAAUAUUACGCUCG | -3.87 ± 0.32 | -2.95 ± 0.29
CGCAAGCAAUAUUACGGCCU | -2.59 ± 0.14 | -0.135 ± 0.13
CGCAAGCAAUAUUACGGGAU | -4.29 ± 0.26 | -2.95 ± 0.23
CGCAAGCAAUAUUACGGGGA | -3.1 ± 0.2 | -2.69 ± 0.23
CGCAAGCAAUAUUACGGGUU | -4.62 ± 0.3 | -2.7 ± 0.2
CGCAAGCAAUAUUACGGUAG | -0.472 ± 0.053 | -0.388 ± 0.06
CGCAAGCAAUAUUACGGUUA | -2.32 ± 0.14 | -0.121 ± 0.085
CGCAAGCAAUAUUACGUAAG | -0.308 ± 0.067 | 0.113 ± 0.093
CGCAAGCAAUAUUACGUCAA | -3.1 ± 0.12 | -2.93 ± 0.14
CGCAAGCAAUAUUACGUCGA | -2.24 ± 0.16 | -1.67 ± 0.14
CGCAAGCAAUAUUACGUUCG | -1.86 ± 0.069 | -0.23 ± 0.082
CGCCAGCAAUAUUACGAGGC | -2.66 ± 0.2 | -3.07 ± 0.32
CGCCAGCAAUAUUACGAGGG | -3.28 ± 0.17 | -1.83 ± 0.18
CGCCAGCAAUAUUACGAGUC | -3.11 ± 0.28 | -1.56 ± 0.24
CGCCAGCAAUAUUACGAUCA | -1.58 ± 0.32 | -0.817 ± 0.34
CGCCAGCAAUAUUACGCCCA | -1.42 ± 0.18 | -0.853 ± 0.19

Sequence | self-splicing fitness (ln) (30 °C) | self-splicing fitness (ln) (37 °C)
CGCCAGCAAUAUUACGCCUC | -3.25 ± 0.32 | -0.661 ± 0.29
CGCCAGCAAUAUUACGCCUU | -3.11 ± 0.27 | -2.29 ± 0.26
CGCCAGCAAUAUUACGCGUG | -2.06 ± 0.1 | -0.717 ± 0.093
CGCCAGCAAUAUUACGCUCG | -2.21 ± 0.13 | -0.347 ± 0.14
CGCCAGCAAUAUUACGGACC | -1.3 ± 0.15 | -0.361 ± 0.18
CGCCAGCAAUAUUACGGGCG |  | -2.94 ± 0.4
CGCCAGCAAUAUUACGGGGA | -3.02 ± 0.22 | -3.06 ± 0.27
CGCCAGCAAUAUUACGGUGG | -2.06 ± 0.09 | -2.56 ± 0.18
CGCCAGCAAUAUUACGUAAG | -0.207 ± 0.063 | 0.217 ± 0.074
CGCCAGCAAUAUUACGUCCC |  | -2.37 ± 0.49
CGCCAGCAAUAUUACGUCGA | -2.94 ± 0.12 | -1.24 ± 0.081
CGCCAGCAAUAUUACGUGCG | -3.99 ± 0.26 | -2.33 ± 0.22
CGCGAGCAAUAUUACGAACG | -3.04 ± 0.43 | -2.08 ± 0.32
CGCGAGCAAUAUUACGAGAU | -2.7 ± 0.28 | -2.19 ± 0.26
CGCGAGCAAUAUUACGAGCA | -1.27 ± 0.13 | -0.102 ± 0.18
CGCGAGCAAUAUUACGCAGA | -1.75 ± 0.22 | -1.77 ± 0.18
CGCGAGCAAUAUUACGCAGC | -3.62 ± 0.46 | -1.99 ± 0.34
CGCGAGCAAUAUUACGCAGU | -2.99 ± 0.16 | -2.77 ± 0.17
CGCGAGCAAUAUUACGCGCA |  | -2.91 ± 0.2
CGCGAGCAAUAUUACGCGGA | -2.15 ± 0.22 | -2.71 ± 0.31
CGCGAGCAAUAUUACGGAAA | -2.72 ± 0.26 | -2.24 ± 0.3
CGCGAGCAAUAUUACGGAUC | -2.62 ± 0.23 | -2.28 ± 0.25
CGCGAGCAAUAUUACGGUAA | -2.58 ± 0.23 | -1.58 ± 0.31
CGCGAGCAAUAUUACGGUAC | -3.55 ± 0.22 | -3.97 ± 0.42
CGCGAGCAAUAUUACGGUCA | -2.23 ± 0.17 | -1.63 ± 0.15
CGCGAGCAAUAUUACGGUUA | -2.88 ± 0.26 | -0.646 ± 0.18

Sequence | self-splicing fitness (ln) (30 °C) | self-splicing fitness (ln) (37 °C)
CGCGAGCAAUAUUACGUCGU | -3.51 ± 0.23 | -3.58 ± 0.31
CGCGAGCAAUAUUACGUGAA | -3.57 ± 0.28 | -2.56 ± 0.35
CGCGAGCAAUAUUACGUGCA | -2.08 ± 0.099 | -0.511 ± 0.095
CGCGAGCAAUAUUACGUGGU | -3.27 ± 0.15 | -2.64 ± 0.21
CGCGAGCAAUAUUACGUGUC | -3.46 ± 0.19 | -2.6 ± 0.2
CGCUAGCAAUAUUACGAAGA | -2.12 ± 0.46 | 
CGCUAGCAAUAUUACGAGCG | -4.02 ± 0.39 | -2.69 ± 0.39
CGCUAGCAAUAUUACGAGUA | -0.852 ± 0.11 | -0.525 ± 0.11
CGCUAGCAAUAUUACGCCAA |  | -0.881 ± 0.32
CGCUAGCAAUAUUACGCCCG | -2.1 ± 0.22 | -0.695 ± 0.35
CGCUAGCAAUAUUACGCCCU | 0.0689 ± 0.15 | -0.957 ± 0.24
CGCUAGCAAUAUUACGCCUG | 0.202 ± 0.13 | 0.152 ± 0.16
CGCUAGCAAUAUUACGCGAG | -2.93 ± 0.28 | -2.56 ± 0.21
CGCUAGCAAUAUUACGCGUC | -3.34 ± 0.32 | -3.09 ± 0.39
CGCUAGCAAUAUUACGCUAG | -2.63 ± 0.22 | -2.16 ± 0.27
CGCUAGCAAUAUUACGGACC | -2.14 ± 0.31 | 
CGCUAGCAAUAUUACGGGAU | -3.77 ± 0.36 | -2.4 ± 0.26
CGCUAGCAAUAUUACGGGGC | -2.87 ± 0.22 | -2.29 ± 0.2
CGCUAGCAAUAUUACGGGGG | -2.53 ± 0.14 | -2.43 ± 0.16
CGCUAGCAAUAUUACGGGUC | -3.08 ± 0.21 | -2.9 ± 0.34
CGCUAGCAAUAUUACGGUAU | -3.03 ± 0.15 | -2.39 ± 0.19
CGCUAGCAAUAUUACGUAAU | -3.03 ± 0.16 | -1.53 ± 0.14
CGCUAGCAAUAUUACGUACC | -1.89 ± 0.27 | -0.55 ± 0.2
CGCUAGCAAUAUUACGUAGC | -3.14 ± 0.31 | -1.68 ± 0.37
CGCUAGCAAUAUUACGUCAA | -3.88 ± 0.23 | -3.07 ± 0.23
CGCUAGCAAUAUUACGUCUA | -2.47 ± 0.22 | -1.59 ± 0.34
